These results are taken from US20190367592A1 (AC IMMUNE, published 2019).

Values joined by “and” are separate entries in the source; they are usually repeats but may differ in a detail not shown here. Equal values may be shown once. Where no end group is shown, it is not given here.

In experiment [1] the target is T1, recombinant human Tau monomer, 2N4R isoform (amino acids 2-441) (human, UniProt P10636-8 2-441).
T1 construct: range 2-441; N-terminal His-tag removed with TEV protease; also called monomeric Tau
Briefly: SPR screen, hIgG captured, Tau monomer analyte. As for the experimental part:
(§1) Grafting onto consensus VH3, Vκ2 and Vκ1 frameworks was assessed. The heavy chain graft included murine residue at position 49 (Kabat numbering system). The Vκ2 graft included murine residues in framework positions 2 and 4. The Vκ1 graft included murine residues in framework positions 2, 4 and 43. Humanized variants were constructed by gene synthesis and subcloning into human IgG1 or IgG4 and Kappa chain mammalian expression vectors. Antibodies were expressed by co-transfection of the heavy and light chain plasmids into CHO cells and purified with affinity resin MabSelect Sure. Humanized variants were screened for affinity to human Tau monomer using the Biacore human IgG capture kit, a Series S CM5 chip and a Biacore T200 instrument. Antibodies were diluted to 2 μg/ml and captured for 15 seconds at 10 μl/min. Association and dissociation of 100, 33, 11 and 3.7 nM human Tau monomer in 10 mM HEPES pH7.4, 150 mM NaCl, 0.05% Tween 20 (running buffer, HBSP) was monitored for 180 seconds and 600 seconds respectively at a flow rate of 30 μl/min. A 1:1 binding model was applied to the results (Table 7).
Target sequence in this assay (P10636 other isoform, or with tags, fused parts or gaps limits assumed): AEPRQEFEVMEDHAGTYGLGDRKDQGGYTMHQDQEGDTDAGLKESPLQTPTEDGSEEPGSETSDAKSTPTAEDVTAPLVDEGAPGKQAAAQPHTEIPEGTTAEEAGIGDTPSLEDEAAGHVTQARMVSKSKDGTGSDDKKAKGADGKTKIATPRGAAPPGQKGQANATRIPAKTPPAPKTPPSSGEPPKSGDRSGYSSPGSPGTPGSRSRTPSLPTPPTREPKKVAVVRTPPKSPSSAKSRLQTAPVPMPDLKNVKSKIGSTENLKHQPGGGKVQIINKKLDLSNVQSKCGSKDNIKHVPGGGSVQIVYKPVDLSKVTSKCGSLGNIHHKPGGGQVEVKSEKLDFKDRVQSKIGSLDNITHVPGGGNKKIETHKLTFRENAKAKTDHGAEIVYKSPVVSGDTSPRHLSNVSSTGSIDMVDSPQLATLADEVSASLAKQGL

Experiment [2] deals with T1, recombinant human Tau monomer, 2N4R …. Briefly: SPR detailed kinetics, hIgG captured, Tau monomer analyte. As for the experimental part: as §1, with “Antibodies were diluted to 2 μg/ml and captured for 15 seconds at 10 μl/min.” left out, “A 1:1 binding model was applied to the results (Table 7).” left out
Target sequence in this assay (P10636 other isoform, or with tags, fused parts or gaps limits assumed): as above
Antibody variants hu37D3-H9.v1, hu37D3-H9.v2, hu37D3-H9.v5 and hu37D3-H9.v6 were characterized further by surface plasmon resonance with additional antibody concentrations and longer association/dissociation times. These variants were analyzed with a broader range of human Tau monomer concentrations (1.2, 3.7, 11.1, 11.1, 33.3, 100 nM) and increased association (300 seconds) and dissociation (1200 seconds) periods. […]

Experiment [3] has the same target. Briefly: SPR, captured IgG, Tau monomer analyte, 1:1 model; fit-quality column: Yes. Summed up: (§2)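 IgGs captured on anti-human IgG CM5 chip at 2 μg/ml; Tau monomer analyte at 0, 26.5 and 265 nM, 25° C., 180 s association, 300 s dissociation, in HBSP pH 7.4; KD from 1:1 fit. Stress: 0.1 mg/ml antibody held 2 weeks at 40° C versus ~4° C; Rmax normalized to capture level, post/pre ratio.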
Target sequence in this assay (P10636 other isoform, or with tags, fused parts or gaps limits assumed): as above
In general terms: Surface plasmon resonance follows binding to a sensor surface in real time, without labels.

The target is the same in experiment [4]. Briefly: SPR; Normalized Rmax post-stress (2 weeks 40 C) / pre-stress. An outline of the steps:
as §2
Target sequence in this assay (P10636 other isoform, or with tags, fused parts or gaps limits assumed): as above

Experiment [5] shares this target. Briefly: SPR, hIgG captured, Tau monomer analyte. How it is done: (§3) Affinity was assessed at 25° C. using a Biacore T200 instrument, the GE Biacore human IgG capture kit and a CM5 Series S chip. The hIgG were diluted to 2 μg/ml in 10 mM HEPES pH7.4, 150 mM NaCl, 0.05% Tween 20 (running buffer, HBSP) and captured at a flow rate of 10 μl/min for 22 seconds. […] Between cycles the surface was regenerated using a 30 second injection of 3M Magnesium Chloride at 10 μl/min. A 1:1 binding model was fitted to the data and affinities for hu37D3-H9.v5 and hu37D3-H9.v5.3 (also referred to herein as hu37D3-H9.v5 N28D) calculated using kinetic analysis. Parameters used for the 1:1 fitting included the Instrument default of local fitting for the “RI” parameter.
Target sequence in this assay (P10636 other isoform, or with tags, fused parts or gaps limits assumed): as above

For experiment [6] the target is unchanged. As to the kind of experiment: SPR, hIgG captured, Tau monomer analyte; mean of four. As for the experimental part:
as §3

In a further experiment the target is T2, MAPT(2-34) (human, biotinylated).
T2 construct: also called Tau fragment 2-34
T2 peptide: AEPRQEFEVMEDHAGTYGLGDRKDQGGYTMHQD
Briefly: ELISA, biotinylated peptide on Neutravidin plate, IgG titrated, A450 nm. How it is done:
(§4) Following a comparison of 37D3-H9 binding to biotinylated Tau monomer and biotinylated peptide (MAPT_10-24), binding of 37D3-H9 to additional biotinylated peptides was also assessed. Nunc maxisorp 96-well microplates were coated at 4° C. for >12 hours with Neutravidin diluted to 2 μg/ml in 50 mM Sodium Carbonate Buffer, pH 9.6. All subsequent incubations were performed at room temperature. After coating, plates were blocked with Superblock™ (PBS) Blocking Buffer (Thermo Fisher Scientific) for two hours then washed thoroughly with PBS, 0.05% Polysorbate 20. Wells were then exposed to biotinylated Tau peptides (Table 20) or Avi-tag biotinylated Tau monomer at 1 μg/ml for one hour and washed as previously. Peptides were synthesized using standard solid-phase Fmoc chemistry (see, e.g., Fmoc solid phase peptide synthesis: A practical approach; Chan, W. C., White, P. D., Eds.; Oxford University Press: New York, 2000). Antibodies 37D3-H9 mIgG2a and hu37D3-H9.v5 hIgG1, serially diluted from 500 nM to 50 pM in 90% Superblock™ (PBS) Blocking Buffer, were allowed to bind biotinylated-Tau coated wells for 90 minutes. Wells were washed as previously and bound antibody detected with peroxidase-conjugated secondary antibody (Invitrogen/Life Technologies) diluted 1/1000 in Superblock™ Blocking Buffer (Rabbit anti-Mouse IgG or Goat Anti-Human IgG (H+L) respectively). After twenty minutes wells were washed as previously and signal developed with TMB Microwell 2-Component Substrate (KPL). Reactions were stopped by addition of 1M Phosphoric Acid and absorbance at 450 nm was measured with a SpectraMax M2 platereader.
(In general: ELISA stands for enzyme-linked immunosorbent assay.)

Another experiment concerns the target T3, MAPT(2-24) (human, biotinylated).
T3 construct: also called Tau fragment 2-24
T3 peptide: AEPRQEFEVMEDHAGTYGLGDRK
The experiment is described as above. How it is done: as §4

In a further experiment the target is T4, MAPT(10-24) (human, also: biotinylated, site not given here).
T4 construct: also called Tau fragment 10-24
T4 peptide: VMEDHAGTYGLGDRK
Described as above. How it is done:
as §4

In experiment [7] the target is T1, recombinant human Tau monomer, 2N4R …. As to the kind of experiment: SPR, hIgG captured, Tau monomer analyte, 1:1 fit. How it is done: Affinity of selected antibodies was assessed at 25° C. using a Biacore T200 instrument, the GE Biacore human IgG capture kit and a CM5 Series S chip. The hIgG were diluted to 0.25 μg/ml in 10 mM HEPES pH7.4, 150 mM NaCl, 0.05% Tween 20 (running buffer, HBSP) and captured at a flow rate of 10 μl/min for 150 seconds. Kinetic data was collected for Human Tau monomer injected at concentrations of 0, 0.4, 1.2, 3.7, 11, 11, 33 and 100 nM in HBSP, using a flow rate of 30 μl/min, a 300 second association phase and a 600 second dissociation phase. Between cycles the surface was regenerated using two sequential 30 second injections of 3M MgCl at 10 μl/min. Data was fit to a 1:1 binding model (Table 15).

For experiment [8] the target is unchanged. Briefly: SPR screen, hIgG captured, Tau monomer analyte; mean of n = 3. The source says:
Antibody 125B11-H3 was humanized onto VH3 and Vκ1 consensus frameworks. The heavy chain graft included murine residues at position 78 (Kabat numbering system). The Vκ1 graft included murine residues in framework positions 43 and 87. The light chain of 113F5-F7 was also humanized onto the Vκ1 framework, with additional murine residues at framework positions 43 and 87. Humanized variant heavy chains (125B11) and light chains (125B11 and 113F5-F7) were co-transfected in multiple combinations and purified in 96-well format as described above. Humanized variants were then screened for affinity for human Tau monomer using the Biacore human IgG capture kit, a Series S CM5 chip and a Biacore T200 instrument. Antibodies were diluted to 2 μg/ml and captured for 15 seconds at 10 μl/min. Association and dissociation of 0, 100 and 500 nM human Tau monomer in HBSP was monitored for 180s and 300s respectively at a flow rate of 40 μl/min. A 1:1 binding model was applied to the results (Table 9).
Variants hu125B11.v17 (HC3+LC1), hu125B11.v26 (HC4+LC2) and hu125B 11.v28 (HC4+LC4) were selected for high-resolution kinetic analysis based on the affinity screen (Table 10). Antibody 94B2-C1 was humanized onto VH1 and Vx2 frameworks. The heavy chain graft also included murine residues at position 28, 29, 67, 69, 71, and 73 (Kabat numbering system). […]
Target sequence in this assay (P10636 other isoform, or with tags, fused parts or gaps limits assumed): as the sequence (P10636 other isoform, or with tags, fused parts or gaps limits assumed) above

B1: hu37D3-H9.v5 (antibody, V domains shown)
VH: EVQLVESGGGLVQPGGSLRLSCAASGLIFRSYGMSWVRQAPGKGLEWVATINSGGTYTYYPDSVKGRFTISRDNSKNTLYLQMNSLRAEDTAVYYCANSYSGAMDYWGQGTLVTVSS
VL: EDVLTQTPLSLPVTPGQPASISCRSSQSIVHSNGNTYFEWYLQKPGQSPQLLIYKVSNRFSGVPDRFSGSGSGTDFTLKISRVEAEDVGVYYCFQGSLVPWTFGQGTKVEIK
notes: human IgG1 or IgG4, kappa
As usually defined, the Kd is the equilibrium constant for the complex coming apart. As to B1, the Kd in [1] was determined as 1.9 nM; in experiment [2], 0.8 nM; in [3], 0.9 nM. Besides, the “Stability Index” value in experiment [4] worked out at 73%.

B2: hu37D3-H9.v1 (antibody, V domains shown)
VH: EVQLVESGGGLVQPGGSLRLSCAASGLIFRSYGMSWVRQAPGKGLEWVATINSGGTYTYYPDSVKGRFTISRDNSKNTLYLQMNSLRAEDTAVYYCANSYSGAMDYWGQGTLVTVSS
VL: EDQLTQSPSSLSASVGDRVTITCRSSQSIVHSNGNTYFEWYQQKPGKSPKLLIYKVSNRFSGVPSRFSGSGSGTDFTLTISSLQPEDFATYYCFQGSLVPWTFGQGTKVEIK
notes: human IgG1 or IgG4, kappa
As for B2, the Kd in experiment [1] is 4.1 nM; in experiment [2], 1.1 nM and 1 nM.

B3: hu37D3-H9.v5 N28D hIgG1 (antibody, name in Kabat numbering, V domains shown)
VH: EVQLVESGGGLVQPGGSLRLSCAASGLIFRSYGMSWVRQAPGKGLEWVATINSGGTYTYYPDSVKGRFTISRDNSKNTLYLQMNSLRAEDTAVYYCANSYSGAMDYWGQGTLVTVSS
VL: EDVLTQTPLSLPVTPGQPASISCRSSQSIVHSDGNTYFEWYLQKPGQSPQLLIYKVSNRFSGVPDRFSGSGSGTDFTLKISRVEAEDVGVYYCFQGSLVPWTFGQGTKVEIK
notes: human IgG1, kappa; also called hu37D3-H9.v5.3
As to B3, the Kd in experiment [5] amounted to 160 nM; in experiment [3] it was 73.2 nM. Besides, the “fold reduction in affinity against hu37D3-H9.v5” value in experiment [5] is more than 100 fold. In experiment [4], the “Stability Index” value was determined as 70%.

B4: hu37D3-H9.v5 hIgG1 (antibody, V domains shown)
VH: EVQLVESGGGLVQPGGSLRLSCAASGLIFRSYGMSWVRQAPGKGLEWVATINSGGTYTYYPDSVKGRFTISRDNSKNTLYLQMNSLRAEDTAVYYCANSYSGAMDYWGQGTLVTVSS
VL: EDVLTQTPLSLPVTPGQPASISCRSSQSIVHSNGNTYFEWYLQKPGQSPQLLIYKVSNRFSGVPDRFSGSGSGTDFTLKISRVEAEDVGVYYCFQGSLVPWTFGQGTKVEIK
notes: human IgG1, kappa
What is called koff is a measure of how fast the partners let go of each other. By kon is commonly meant a measure of how fast the partners come together. Take B4: the Kd amounted to 1.5 nM in experiment [6], 1 nM in experiment [7] and 1 nM in experiment [3]. The binding result in the experiment with MAPT(2-34), with MAPT(2-24) and with MAPT(10-24) was “binds” in each case. The koff in experiment [7] was found to be 0.0008 s⁻¹. In addition, the association rate constant (kon) in experiment [7] was found to be 750000 M⁻¹ s⁻¹.

B5: hu94B2 HC1 + LC9 (antibody, V domains shown)
VH: EVQLVQSGAEVKKPGASVKVSCKASGYSLTGYTMNWVRQAPGQGLEWIGLISPYNGVTSYNQKFKGRATLTVDKSTSTAYLELSSLRSEDTAVYYCARQGAYWGQGTLVTVSS
VL: DVVMTQTPLSLPVTPGQPASISCKSSQSLLDSDGKTYLNWLLQKPGQSPQRLIYLVSKLDSGVPDRFSGSGSGTDFTLKISRVEAEDVGVYYCWQGTHFPWTFGQGTKVEIK
As to B5, the Kd in experiment [8] worked out at 3.8 nM.
